Experimental findings from PMC5460178 (NPJ Biofilms and Microbiomes, 2017) are described below.

The data set deals with the molecule itself. Kind of data set: SEC.

B1: GroEL-P (His6-GroEL of B. anthracis co-expressed with PrkCc in E. coli, phosphorylated) (natural protein)
chain: MAKDIKFSEEARRSMLRGVDTLANAVKVTLGPKGRNVVLEKKFGSPLITNDGVTIAKEIELEDAFENMGAKLVAEVASKTNDVAGDGTTTATVLAQAMIREGLKNVTAGANPMGLRKGIEKAVVAAVEELKTISKPIEGKSSIAQVAAISAADEEVGQLIAEAMERVGNDGVITLEESKGFTTELDVVEGMQFDRGYASPYMITDSDKMEAVLDNPYILITDKKISNIQEILPVLEQVVQQGKPLLIIAEDVEGEALATLVVNKLRGTFNVVAVKAPGFGDRRKAMLEDIAILTGGEVITEELGRDLKSATVESLGRAGKVVVTKENTTVVEGVGSTEQIEARIGQIRAQLEETTSEFDREKLQERLAKLVGGVAVIKVGAATETELKERKLRIEDALNSTRAAVEEGIVAGGGTSLMNVYTKVASIVAEGDEATGINIVLRALEEPVRQIAINAGLEGSVVVERLKGEKVGVGFNAATGEWVNMLETGIVDPAKVTRSALQNAASVAAMFLTTEAVVADKPEPNAPAMPDMGGMGMGGMGGMM
On to B1, for which the “stoichiometry N” value was 14.
